The text below walks through data of patent publication US20240101645A1 (HENRY M JACKSON FOUNDATION FOR THE ADVANCEMENT OF MILITARY …, published 2024).

T1: HCoV-229E spike antigens (bead panel) (HCoV-229E, UniProt P15423 16-1115)
T1 sequence: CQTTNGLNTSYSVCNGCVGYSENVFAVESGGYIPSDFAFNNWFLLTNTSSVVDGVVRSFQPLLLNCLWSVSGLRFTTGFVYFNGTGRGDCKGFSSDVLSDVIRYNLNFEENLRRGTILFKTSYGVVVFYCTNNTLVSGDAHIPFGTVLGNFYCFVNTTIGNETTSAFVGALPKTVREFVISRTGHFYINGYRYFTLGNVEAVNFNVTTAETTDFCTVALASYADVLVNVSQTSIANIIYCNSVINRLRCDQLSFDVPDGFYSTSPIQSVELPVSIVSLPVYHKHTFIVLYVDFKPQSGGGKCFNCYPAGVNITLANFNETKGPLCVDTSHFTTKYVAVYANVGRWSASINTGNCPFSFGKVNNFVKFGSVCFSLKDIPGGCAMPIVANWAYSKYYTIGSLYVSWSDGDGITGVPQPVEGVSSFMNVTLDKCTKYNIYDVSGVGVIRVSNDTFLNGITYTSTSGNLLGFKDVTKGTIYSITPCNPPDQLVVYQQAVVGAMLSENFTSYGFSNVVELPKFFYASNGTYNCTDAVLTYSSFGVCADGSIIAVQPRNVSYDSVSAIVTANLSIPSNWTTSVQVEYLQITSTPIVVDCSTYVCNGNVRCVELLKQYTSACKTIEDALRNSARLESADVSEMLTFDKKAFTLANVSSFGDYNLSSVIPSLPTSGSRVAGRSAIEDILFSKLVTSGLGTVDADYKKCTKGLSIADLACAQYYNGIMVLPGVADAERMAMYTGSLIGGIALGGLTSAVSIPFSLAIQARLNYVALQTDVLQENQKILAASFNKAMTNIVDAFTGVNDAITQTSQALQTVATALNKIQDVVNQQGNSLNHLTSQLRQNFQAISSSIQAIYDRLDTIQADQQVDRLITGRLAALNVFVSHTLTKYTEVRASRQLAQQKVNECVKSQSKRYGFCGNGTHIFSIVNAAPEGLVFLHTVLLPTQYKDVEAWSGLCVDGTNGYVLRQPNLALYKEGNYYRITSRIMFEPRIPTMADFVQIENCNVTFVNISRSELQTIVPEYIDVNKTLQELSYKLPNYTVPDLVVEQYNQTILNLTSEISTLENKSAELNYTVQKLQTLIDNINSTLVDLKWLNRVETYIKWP

T2: HCoV-OC43 spike antigens (bead panel) (HCoV-OC43, UniProt P36334 14-1297)
T2 sequence: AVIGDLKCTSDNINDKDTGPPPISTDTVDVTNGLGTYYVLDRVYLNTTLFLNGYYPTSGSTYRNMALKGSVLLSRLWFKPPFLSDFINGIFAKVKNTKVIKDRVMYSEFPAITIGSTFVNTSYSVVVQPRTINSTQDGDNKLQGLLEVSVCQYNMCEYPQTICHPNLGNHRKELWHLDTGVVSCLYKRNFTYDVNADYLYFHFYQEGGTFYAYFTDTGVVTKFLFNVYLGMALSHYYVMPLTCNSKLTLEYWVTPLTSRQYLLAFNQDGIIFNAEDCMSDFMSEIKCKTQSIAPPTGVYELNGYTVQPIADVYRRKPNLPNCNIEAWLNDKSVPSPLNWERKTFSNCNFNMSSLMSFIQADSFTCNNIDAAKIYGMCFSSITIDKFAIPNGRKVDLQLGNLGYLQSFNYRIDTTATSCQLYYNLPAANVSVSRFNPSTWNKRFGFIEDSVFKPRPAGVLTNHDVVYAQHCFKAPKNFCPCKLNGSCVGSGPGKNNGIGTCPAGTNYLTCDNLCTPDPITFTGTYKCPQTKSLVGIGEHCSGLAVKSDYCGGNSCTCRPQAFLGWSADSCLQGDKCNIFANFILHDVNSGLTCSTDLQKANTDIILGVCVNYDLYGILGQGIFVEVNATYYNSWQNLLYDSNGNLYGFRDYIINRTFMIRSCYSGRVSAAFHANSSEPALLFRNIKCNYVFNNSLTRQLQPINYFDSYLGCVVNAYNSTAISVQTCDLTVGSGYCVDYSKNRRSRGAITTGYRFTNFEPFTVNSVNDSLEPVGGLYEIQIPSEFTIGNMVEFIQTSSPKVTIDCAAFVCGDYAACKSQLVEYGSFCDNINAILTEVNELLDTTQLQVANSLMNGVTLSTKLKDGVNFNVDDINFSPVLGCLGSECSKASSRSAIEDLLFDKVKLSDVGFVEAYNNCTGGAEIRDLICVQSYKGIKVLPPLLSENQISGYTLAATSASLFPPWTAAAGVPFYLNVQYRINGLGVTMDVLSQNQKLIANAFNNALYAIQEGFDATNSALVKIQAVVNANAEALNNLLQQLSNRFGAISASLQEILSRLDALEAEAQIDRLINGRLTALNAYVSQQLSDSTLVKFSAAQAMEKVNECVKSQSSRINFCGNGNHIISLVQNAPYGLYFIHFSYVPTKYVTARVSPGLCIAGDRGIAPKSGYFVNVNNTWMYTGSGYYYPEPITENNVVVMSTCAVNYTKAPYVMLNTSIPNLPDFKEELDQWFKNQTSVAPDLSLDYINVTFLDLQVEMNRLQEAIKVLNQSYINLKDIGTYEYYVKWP

B1: COV_1012 (antibody, V domains shown)
VH: QVQLQESGPGLVRPSGTLSLTCAVSGGSISSSNWWSWVRQPPGKGLEWIGEIYRSGSTNYNPSLKSRVTISVAQSKNQFSLNLTSVTAADTAVYYCAKIIVGAPSDAFDIWGQGTMVTVSS
VL: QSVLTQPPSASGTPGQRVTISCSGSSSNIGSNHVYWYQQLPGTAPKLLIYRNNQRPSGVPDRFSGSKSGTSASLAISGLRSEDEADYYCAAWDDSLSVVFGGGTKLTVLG
notes: human IgG1
B2: COV_1060 (antibody, V domains shown)
VH: EVQLVQSGAEVKKPGESLKISCKSSGYTFTSFWIAWVRQLPGKGLEWMGIIYPGDSDTKYSPSFQGQVTISADKSISTAYLQWSSLKASDTAMYYCARLRGSCSNGVCYAYYYNAMDVWGPGTTVTVSS
VL: QSALTQPASVSGSPGQSITISCTGTSSDIGRYNYVSWYQHHPGKAPKLMIYEVSNRPSGVSNRFSGSKSGNTASLTISGLQAEDEADYYCTSYTSGSTLGFGGGTKVTVLG
B3: COV_1046 (antibody, V domains shown)
VH: QVQLVQSGAEVQKPGASVKVSCKASGDTFSYSYVHWVRQAPGHGLEWMGIINPSNGDTNYTQNFQGRVTMTSDTSTSTVLLELSSLTSDDTAVYYCARAPDQYFDYWGQGSPVTVSA
VL: DIVMTQTPLSSPVTLGQPASISCRSSESLVHSDGNTYLSWLQQRPGQPPRLLIYRVSNRFSGVPDRFSGSGAGTDFTLKISRVEAEDVGVYYCMQAKDFPRTFGQGTKVEIK
B4: COV_3033 (antibody, V domains shown)
VH: EVQMVESGGGFVQPGQSPRLSCLVSGLNFADYAFCWVRQAPGKGPEWIGFISSKLHGGTTHYAASVEGRFIISRDDSKNVVYLQMDNLKAEDSAVYYCTRDSYGYFPEYGFGVWGQGTLVTVSS
VL: EVVLTQTPLSLSVTPGQPASISCRSSQSLVHSDGRTYLYWFLQKPGQPPQPLIYDISSRFSGVPYRFTGSGSGTYFTLRISRVEADDVGVYYCMHSIQLPRAFGQGTKVEIK
B5: COV_3005 (antibody, V domains shown)
VH: EVQLLGFGGGFIRPGGSLRLSCAASGFSFSSYSMSWVRQGPGNGLEWVAGISDRGNSKTYADSVKGRFTVSRDNSKDMLYLELTNLRVEDSATYFCARDWSQSSSSSSPDYWGPGILVTVSS
VL: DIQMTQSPSAMSAFVGDRVTITCRASLGVNNYLAWYQQRPGKVPRRLIYAASSLQSGVPSRFRGSGSGTQFTLTITGLQPEDSGTYYCLQHGRYPPVFGPGTRVELI
B6: COV_2024 (antibody, V domains shown)
VH: QVQLVQSGAEVRKPGSSVKVSCKASGGTFSTYAISWVRQAPGQGLEWMGGIIPMFGTTNYAQKFQGRVTITADESTRTAYMELSSLRSEDTAVYYCARDGGYDSWPDFDYWGQGTLVTVSS
VL: EIVLTQSPATLSLSPGERATLSCRASQSISSFLAWYQQKPGQAPRLLIYDASNRATGIPARFSGSGSGTDFTLTVSSLEPEDFAVYYCHQRRNWPPIKTFGQGTKVDIK
notes: human IgG1
B7: COV_3013 (antibody, V domains shown)
VH: EVQLVESGGGLVQPGRSLRLSCTTSGFNFGDNSMSWVRQAPGKGLEWVGFISNKAHGATTEYAASVRGRFTISRDDSKSIVYLQMNSLTTEDTAMYYCIRDSYGHFPSYGFDIWGQGTMVTVSS
VL: DVVMTQTPLSLSVTPGQPASISCKSSQSLIHSDAKTYFYWFLQKPGQPPQLLIYDVSNRFSGVPDRFSGSGSGTDFTLKISRVEAEDVGVYYCMHSIQLPRTFGQGTKVEIT
B8: COV_3043 (antibody, V domains shown)
VH: EVQVVESGGGLVQPGRSLRLSCTASGFNFGDNSMSWVRQAPGKGLEWVGFISNRDHSGTTDYAASVKGRFTISRDDSKSIAYLQMNSLKTEDTAIYYCIRDSYGHFPNYGFDVWGQGTMVTVSS
VL: B7 VL with S25C, A34G, F38Q, K44R, F60V, Q98N, L99F
B9: COV_3019 (antibody, V domains shown)
VH: EVQLVESGGGLVQPGQSLRLSCTTSGFNFGDNSMSWVRQAPGKGLEWVGFISPKSHGETTEYAASVKGRFSISRDDSTSIAYLQMSSLKTEDTAIYYCIRDSYGHFPEYGFDIWGQGTMVTVSS
VL: B7 VL with M4L, S10F, Q27R, A34G, P45A, D55E, V56A, K79H, V90I, I111L
B10: COV_3040 (antibody, V domains shown)
VH: QVQLVESGGGLVQPGRSLRLSCTTSGFNFGDNSMSWVRQAPGKGLEWIGFISNKAHGGTTDYAASVKGRFTISRDDSKSIAYLQMNSLKAEDTAIYYCTKDSYGHFPSYGFDIWGQGTMVTVSS
VL: B7 VL with S26T, I30V, S32T, A34G, N58S, G73A, K79R, Q98N, L99F
B11: COV_3031 (antibody, V domains shown)
VH: B9 VH with Q16R, P53N, S55A, H56Y, E58G, S71T, S86N, E108D
VL: B7 VL with M4L, S10F, Q27R, A34G, D55E, V56A
B12: COV_3028 (antibody, V domains shown)
VH: B9 VH with E58G, I80N, S86T
VL: DVVLTQTPLFLSVTPGQPASISCKSSGSLIHTDGKTYFYWFLQKAGQPPQLLIYEASNRFSGVPDRFSGSGSGTDFTLHISRVEAEDVGIYYCMHSIQLPRTFGQGTKVELT
B13: COV_1056 (antibody, V domains shown)
VH: QVQLVESGGGVVQPGTSLRLSCEASGFTFSAYGMHWVRQAPGKGLEWVAISRNDGTTKYYADSVKGRLTISRDNSKNTLYLQMNSLTSEDTAVYYCANQCGGGCSVDSWGQGTLVTVSS
VL: QAVVTQEASLTVSPGGTVTLTCGSSTGSVTSGHAPYWFQQKPGQAPRTLIFDTTHKHSWTPARFSGSLLGGKAALTLSGAQPEDEAEYYCLLSFGGAHVFGTGTKVTVLG

Numbering of substitutions follows the chain as printed. Where only a bound is given, the exact number is not on record here.

One assay has as its target SARS-CoV-2 S on pseudovirions (Wuhan Hu-1 / IL1/2020, last 18 amino acids removed) (SARS-CoV-2, UniProt P0DTC2 14-1273). The assay can be described thus: cell-based or functional assay.
As to B1, the “Mean IC50, pSV neutralization” value was at least 25 µg/ml and the “Mean IC80, pSV neutralization” value is at least 25 µg/ml.
Consider B2, for which the “Mean IC50, pSV neutralization” value is at least 25 µg/ml and the “Mean IC80, pSV neutralization” value was at least 25 µg/ml.
For B3, the “Mean IC50, pSV neutralization” value is at least 25 µg/ml and the “Mean IC80, pSV neutralization” value was at least 25 µg/ml.
Consider B4, for which the “Mean IC50, pSV neutralization” value was at least 25 µg/ml and the “Mean IC80, pSV neutralization” value is at least 25 µg/ml.
As to B5, the “Mean IC50, pSV neutralization” value was at least 25 µg/ml and the “Mean IC80, pSV neutralization” value is at least 25 µg/ml.
As for B6, the “Mean IC50, pSV neutralization” value was found to be 9.59 µg/ml and the “Mean IC80, pSV neutralization” value is at least 25 µg/ml.
On the same counts, the results for B7 are at least 25 µg/ml and at least 25 µg/ml.
On the same counts, the results for B8 are at least 25 µg/ml and at least 25 µg/ml.
On the same counts, the results for B9 are at least 25 µg/ml and at least 25 µg/ml.
On to B10, for which the “Mean IC50, pSV neutralization” value is at least 25 µg/ml and the “Mean IC80, pSV neutralization” value is at least 25 µg/ml.
With B11, the “Mean IC50, pSV neutralization” value was at least 25 µg/ml and the “Mean IC80, pSV neutralization” value was at least 25 µg/ml.
For B12, the “Mean IC50, pSV neutralization” value is at least 25 µg/ml and the “Mean IC80, pSV neutralization” value is at least 25 µg/ml.
With B13, the “Mean IC50, pSV neutralization” value is at least 25 µg/ml and the “Mean IC80, pSV neutralization” value was at least 25 µg/ml.

In the next assay the target is T1, HCoV-229E spike antigens (bead panel). The assay is described as follows: multiplex bead assay.
Regarding B1, the binding result is “no binding”.

Another assay concerns the target T2, HCoV-OC43 spike antigens (bead panel). The assay is described as follows: multiplex bead assay.
Regarding B6, the binding result is recorded as “no binding”.
